The data set is described as follows: Kinetic parameters of recombinant mouse dIAP, gIAP and EAP using p-NPP as substrate. In kind it is biochemical. The text has this: The epithelium of the mouse small intestine expresses two intestine specific AP genes, Akp3 and Akp6, and low levels of Akp5, which is not intestine specific (Narisawa, et al, 2007). AP proteins encoded by Akp3, Akp5 and Akp6 were designated duodenal IAP or dIAP, embryonic AP or EAP and global IAP or gIAP, respectively.

[1] abbreviates: p-NPP as substrate, pH 9.8, means ± SD.

B1: EAP: recombinant mouse embryonic alkaline phosphatase encoded by Akp5 (protein, UniProt P24823 19-502, looked up)
Alkaline phosphatase, germ …: VIPVEEENPAFWNRKAAEALDAAKKLKPIQTSAKNLVILMGDGMGVSTVTATRILKGQQQGHLGPETQLAMDRFPHMALSKTYNTDKQIPDSAGTGTAFLCGVKTNMKVIGLSAAARFNQCNTTWGNEVVSVMHRAKKAGKSVGVVTTTSVQHASPAGTYAHTVNRGWYSDAQMPASALQDGCKDISTQLISNMDIDVILGGGRKFMFPKGTPDQEYPTDTKQAGTRLDGRNLVQEWLAKHQGARYVWNRSELIQASLNRSVTHLMGLFEPNDMKYEIHRDPAQDPSLAEMTEVAVRMLSRNPKGFYLFVEGGRIDHGHHETVAYRALTEAVMFDSAVDKADKLTSEQDTMILVTADHSHVFSFGGYTQRGASIFGLAPFKAEDGKSFTSILYGNGPGYKLHNGARADVTEEESSNPTYQQQAAVPLSSETHSGEDVAIFARGPQAHLVHGVQEQNYIAHVMAFAACLEPYTDCGLASPAGQSS
As usually defined, the Km is the substrate concentration at which the rate is half of its maximum. The term kcat denotes the number of substrate molecules converted per active site and unit of time at saturation. Take B1: under setting [1], the Km amounted to 140 ± 30 µM and the kcat was 8.4 ± 1.1 s⁻¹.

B2: dIAP: recombinant mouse duodenal intestinal alkaline phosphatase encoded by Akp3 (protein, UniProt P24822 20-528, looked up)
Intestinal-type alkaline …: VIPVEEENPAFWNKKAAEALDAAKKLQPIQTSAKNLIIFLGDGMGVPTVTATRILKGQLEGHLGPETPLAMDRFPYMALSKTYSVDRQVPDSASTATAYLCGVKTNYKTIGLSAAARFDQCNTTFGNEVFSVMYRAKKAGKSVGVVTTTRVQHASPSGTYVHTVNRNWYGDADMPASALREGCKDIATQLISNMDINVILGGGRKYMFPAGTPDPEYPNDANETGTRLDGRNLVQEWLSKHQGSQYVWNREQLIQKAQDPSVTYLMGLFEPVDTKFDIQRDPLMDPSLKDMTETAVKVLSRNPKGFYLFVEGGRIDRGHHLGTAYLALTEAVMFDLAIERASQLTSERDTLTIVTADHSHVFSFGGYTLRGTSIFGLAPLNALDGKPYTSILYGNGPGYVGTGERPNVTAAESSGSSYRRQAAVPVKSETHGGEDVAIFARGPQAHLVHGVQEQNYIAHVMASAGCLEPYTDCGLAPPADESQTTTTTRQTTITTTTTTTTTTTTPVHN
With B2, the Km runs as follows: under setting [1], 1100 ± 340 µM; (pNPP assay, recombinant enzyme, repeated in text) 1100 ± 340 µM. Moreover, the kcat under setting [1] was found to be 339 ± 13 s⁻¹.

Source of the values: patent US20100016313A1, “INTESTINAL ALKALINE PHOSPHATASE MODULATORS AND USES THEREOF” (Burnham Institute for Medical Research, priority 2008, published 2010).
